# Test results reported in patent US20090048117A1, “MODULATION OF IMMUNE SYSTEM FUNCTION BY MODULATION OF POLYPEPTIDE ARGININE METHYLTRANSFERASES” (President and Fellows of Harvard College, priority 2003, published 2009).
# Tests used:
# Type in all cases: cell-based
# 3X NFAT-CAT reporter = 3X NFAT-CAT reporter assay in HepG2 cells
# Excerpt: FIG. 8 depicts CAT assay results (left) and a bar graph quantitating the relative fold induction of CAT activity (right) in HepG2 cells transfected with a 3X NFAT-CAT reporter gene construct (containing three NFAT binding sites) and either a control expression plasmid or an NFAT family expression plasmid (NFATp, NFATc, NFAT3 or NFAT4), alone (−) or in combination with a NIP45 expression plasmid (^+).
# To test for a functional role of NIP45 in NFAT-driven transcription, NIP45 was expressed at high levels in HepG2 cells. […] HepG2 cells were transfected with a 3X NFAT-CAT reporter from the IL-2 gene (Venkataraman, L. et al. (1994) Immunity 1:189-196) and control or expression plasmids for a NIP45 and NFAT family members (NFATp, NFATc, NFAT3, NFAT4). HepG2 cells were transfected by the DEAE-Dextran method as described in Hoey, T. et al. (1995) supra, and CAT assays were performed according to standard methodologies. One representative assay for each combination is shown adjacent to a bar graph representing relative CAT activity for each group. Fold induction was calculated by normalizing the CAT activity of cells transfected with the CAT reporter and each parental expression vector to one. Values represent the relative level of CAT expression above this control transfection. All transfections were performed at least three times with one representative autoradiograph shown.
# M12 B lymphoma cells = test: Endogenous IL-4 production by transfected M12 B lymphoma cells (ELISA); conditions: M12 cells cotransfected with NFATp and c-Maf; supernatants at 72 hours
# Method: FIG. 10 is a bar graph depicting the level of IL-4 (in pg/ml) in the supernatants of M12 B lymphoma cells transiently cotransfected with expression plasmids for NFATp, c-Maf and a pCI vector control (top bar) or expression plasmids for NFATp, c-Maf and NIP45 (bottom bar).
# M12 cells were transiently transfected by electroporation as previously described (Ho, I. C. et al. (1996) Cell 85:973-983) by incubating 3×10^6 cells in 0.4 ml of PBS with 5 μg of each plasmid for 10 minutes at room temperature prior to electroporation at 975 μF, 280 V. Levels of IL-4 in the supernatants harvested 72 hours later were measured by a commercially available IL-4 ELISA (Pharmingen), performed according to the manufacturer's instructions except with modification as described (Ho, I. C. et al. (1996) supra). Four independent sets of transient transfections were done and assayed for secretion of IL-4 into the culture supernatant. For each set of transfections, inclusion of NIP45 led to a dramatic increase in IL-4 production.
# IL-4 promoter = test: IL-4-CAT reporter assay in HepG2 cells; conditions: NIP45 together with NFATp and c-Maf
# Method: FIG. 9 depicts CAT assay results (left) and a bar graph quantitating the relative fold induction of CAT activity (right) in HepG2 cells transfected with an IL-4-CAT reporter gene, construct (extending to −732 bp of the IL-4 promoter) and combinations of NFATp, NIP45 and/or c-Maf expression constructs, as indicated.
# Although a reporter construct containing multiple copies of the NFAT binding site provides a sensitive method for measuring transactivation by NFAT and NIP45, it was determined if NIP45 was functional in the context of a native NFAT-dependent promoter. IL-4 expression is highly tissue specific and restricted to the Th2 subset of T cells and to mast cells. […] Thus, the IL-4 promoter is not active in the HepG2 cell line but can be activated by the introduction of NFATp and c-maf. In cotransfection experiments carried out as described above, HepG2 cells were transfected with an IL-4-CAT reporter construct (extending to −732 bp of the IL-4 promoter) and expression vectors or controls for NIP45, NFATp and c-Maf. The controls for NIP45 was a frame shift mutant at amino acid 13. Controls for NFATp and c-Maf were the empty expression vectors pREP4 and pMEX respectively (Ho, I. C. et al. (1996) Cell 85:973-983). The results of these experiments are shown in FIG. 9 (representative CAT assays and bar graphs are depicted as in FIG. 8).
molecule,measurement,setting,value
"NIP45: 45 Kd NFAT interacting protein of 412 amino acids (SEQ ID NO: 2), expressed from a transfected expression plasmid (protein, listed as Mus musculus) MAEPLRGRGPRSRGGRGARRARGARGRCPRARQSPARLIPDTVLVDLVSDSDEEVLEVADPVEVPVARLPAPAKPEQDSDSDSEGAAEGPAGAPRTLVRRRRRRLLDPGEAPVVPVYSGKVQSSLNLIPDNSSLLKLCPSEPEDEADLTNSGSSPSEDDALPSGSPWRKKLRKKCEKEEKKMEEFPDQDISPLPQPSSRNKSRKHTEALQKLREVNKRLQDLRSCLSPKQHQSPALQSTDDEVVLVEGPVLPQSSRLFTLKIRCRADLVRLPVRMSEPLQNVVDHMANHLGVSPNRILLLFGESELSPTATPSTLKLGVADIIDCVVLASSSEATETSQELRLRVQGKEKHQMLEISLSPDSPLKVLMSHYEEAMGLSGHKLSFFFDGTKLSGKELPADLGLESGDLIEVWG",increase in CAT activity over vector alone,3X NFAT-CAT reporter; NIP45 cotransfected with NFATp,25-30 fold
same,increase in CAT activity relative to transfection with NFATp alone,3X NFAT-CAT reporter; NIP45 cotransfected with NFATp,4-5 fold
same,CAT expression from 3X NFAT-CAT reporter,3X NFAT-CAT reporter; NIP45 transfected alone,did not lead to a significant increase
same,endogenous IL-4 production relative to cells that did not receive NIP45,M12 B lymphoma cells,50-200 fold
same,increase in activity of the IL-4 promoter relative to NFATp and c-Maf alone,IL-4 promoter,9 fold
